Test results as given in patent publication US10464987B2.

Legend:
[1] = molecular target: SIY peptide on H-2Kb (mouse); assay: value cited from Chervin et al. 2009 (ref 18); not measured in this filing
[2] = molecular target: SIY peptide on H-2Kb (mouse); assay: value stated for m33 in the legend of FIG. 16, no measurement described; given for scTv and full-length constructs alike
[3] = molecular target: SIY peptide on H-2Kb (mouse); assay: value stated for 2C in the legend of FIG. 16, no measurement described; given for scTv and full-length constructs alike

Row | Kd [1] [nM] | Kd [2] [nM] | Kd [3] [nM] | Substance
1 | 16 | 30 | – | m33 full-length TCR
2 | – | – | 30000 | 2C full-length TCR
